The term EC50 (read off the curve) denotes the concentration at which the effect is half-maximal. For orientation: IC50 means the concentration needed to halve the response being measured. By % inhibition is commonly meant the change of the read-out against control, counted positive when it falls. What is called EC50 is the concentration needed to bring the measured effect to its halfway point. Read a high EC50 as weaker potency.

Assay [1] addresses T1, human CD30L expressed on cells (human, UniProt P32971 1-234).
T1 sequence: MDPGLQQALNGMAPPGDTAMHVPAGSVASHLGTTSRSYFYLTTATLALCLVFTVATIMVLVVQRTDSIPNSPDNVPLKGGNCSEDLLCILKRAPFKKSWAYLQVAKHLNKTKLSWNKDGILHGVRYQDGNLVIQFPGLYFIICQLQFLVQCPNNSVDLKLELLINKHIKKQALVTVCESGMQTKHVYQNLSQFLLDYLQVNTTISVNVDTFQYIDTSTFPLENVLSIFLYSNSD
The assay can be described thus: cell-based or functional assay.

The target in assay [2] is T2, cynomolgus CD30L expressed on cells (cynomolgus, UniProt A0A7N9CVX7 1-234).
T2 sequence: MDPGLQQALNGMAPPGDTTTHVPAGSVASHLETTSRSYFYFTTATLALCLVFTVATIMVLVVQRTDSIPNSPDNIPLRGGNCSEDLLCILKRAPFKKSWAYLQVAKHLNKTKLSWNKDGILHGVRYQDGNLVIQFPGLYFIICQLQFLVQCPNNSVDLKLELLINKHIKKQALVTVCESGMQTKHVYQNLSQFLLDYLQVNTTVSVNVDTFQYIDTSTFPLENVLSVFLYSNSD
The assay can be described thus: cell-based or functional assay.

The target of a further assay is T3, CDH13 (human, UniProt P55290 139-693).
T3 construct: whole, on cells; also called hit #16
T3 sequence (looked up): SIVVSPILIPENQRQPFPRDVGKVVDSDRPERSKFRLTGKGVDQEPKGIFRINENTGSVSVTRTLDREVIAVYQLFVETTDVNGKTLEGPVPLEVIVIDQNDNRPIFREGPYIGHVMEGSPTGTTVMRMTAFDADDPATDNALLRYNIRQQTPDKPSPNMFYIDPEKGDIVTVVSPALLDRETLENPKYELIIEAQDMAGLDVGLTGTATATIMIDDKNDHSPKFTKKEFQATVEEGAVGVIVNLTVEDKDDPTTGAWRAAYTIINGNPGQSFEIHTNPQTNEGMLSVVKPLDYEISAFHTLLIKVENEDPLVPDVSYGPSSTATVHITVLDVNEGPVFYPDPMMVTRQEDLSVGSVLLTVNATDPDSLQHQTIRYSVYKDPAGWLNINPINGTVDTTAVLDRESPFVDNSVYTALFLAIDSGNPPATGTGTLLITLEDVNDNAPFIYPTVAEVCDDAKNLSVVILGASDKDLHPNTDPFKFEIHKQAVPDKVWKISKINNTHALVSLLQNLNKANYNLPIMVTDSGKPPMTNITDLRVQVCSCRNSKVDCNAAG
Nature of the assay: cell microarray, library and confirmation screens.

Assay [3] addresses T4, recombinant human CD30L (human, UniProt P32971 63-234).
T4 construct: Purified recombinant protein of ELISA, BLI, Carterra and KinExA; also called rhCD30L; huCD30L
T4 sequence (looked up): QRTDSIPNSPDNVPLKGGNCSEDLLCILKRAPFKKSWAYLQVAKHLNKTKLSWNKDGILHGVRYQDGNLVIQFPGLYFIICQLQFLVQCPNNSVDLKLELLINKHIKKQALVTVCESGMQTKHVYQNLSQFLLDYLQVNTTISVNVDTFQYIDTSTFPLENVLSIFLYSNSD
Nature of the assay: ELISA, binding to rhCD30L (OD 450 nm). A general note: An ELISA detects its analyte on a solid surface through an enzyme-linked reagent.

The target of assay [4] is T4, recombinant human CD30L. Nature of the assay: recombinant blocking ELISA; competitor CD30.
Assay [5] deals with T4, recombinant human CD30L. The assay can be described thus: BLI, CD30 association to CD30L held by captured IgG; competitor rhCD30. For orientation: BLI is a label-free optical method that tracks binding on a fibre tip over time.
Method: Briefly, individual anti-human biosensors were loaded with purified IgG (normalized to 10 μg/mL) and a baseline was measured for each biosensor. Biosensors were saturated with biotin and with polyclonal hulgG and a baseline was measured. Loaded biosensors were then allowed to bind CD30L and the association rate was measured for the binding. Biosensors were moved to buffer wells to measure the dissociation rate.
Assay [6] deals with T5, human CD30L expressed on B16 cells (human, UniProt P32971 1-234).
T5 construct: whole, on cells; B16 cell line transfected to express human CD30L; also called B16-huCD30L; B16-rhCD30L
T5 sequence (looked up): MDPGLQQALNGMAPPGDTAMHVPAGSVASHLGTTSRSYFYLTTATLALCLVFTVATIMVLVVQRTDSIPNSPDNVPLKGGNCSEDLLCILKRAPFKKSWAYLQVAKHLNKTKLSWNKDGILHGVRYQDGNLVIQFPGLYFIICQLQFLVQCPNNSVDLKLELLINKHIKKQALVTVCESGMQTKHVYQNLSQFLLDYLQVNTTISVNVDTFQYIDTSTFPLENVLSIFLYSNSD
The assay can be described thus: flow cytometry on B16 cells expressing hCD30L.

Assay [7] has as its target T5, human CD30L expressed on B16 cells. The assay can be described thus: flow cytometry, binding to B16 cells expressing human CD30L (MFI). On the technique in general: Flow cytometry measures light scatter and fluorescence of single cells or particles in a stream.
The next assay deals with T6, recombinant mouse CD30L (mouse, UniProt P32972 68-239).
T6 construct: Purified recombinant protein; also called rmCD30L
T6 sequence (looked up): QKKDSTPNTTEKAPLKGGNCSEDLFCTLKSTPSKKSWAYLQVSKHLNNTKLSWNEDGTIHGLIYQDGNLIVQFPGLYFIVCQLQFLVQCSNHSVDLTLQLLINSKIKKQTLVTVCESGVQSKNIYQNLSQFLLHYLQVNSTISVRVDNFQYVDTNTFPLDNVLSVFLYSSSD
The assay can be described thus: ELISA on recombinant protein.

Assay [8] deals with T4, recombinant human CD30L. Nature of the assay: ELISA on recombinant protein.
The target of assay [9] is T7, recombinant cynomolgus CD30L (cynomolgus, UniProt A0A7N9CVX7 63-234).
T7 construct: Purified recombinant protein; also called rcyCD30L; cyno CD30L
T7 sequence: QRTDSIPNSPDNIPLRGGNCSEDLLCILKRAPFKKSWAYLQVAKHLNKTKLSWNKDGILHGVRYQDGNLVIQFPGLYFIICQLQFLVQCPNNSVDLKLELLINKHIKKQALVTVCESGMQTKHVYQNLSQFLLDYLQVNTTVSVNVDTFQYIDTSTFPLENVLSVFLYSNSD
Nature of the assay: ELISA on recombinant protein.

Assay [10] addresses T5, human CD30L expressed on B16 cells. Nature of the assay: cell-based or functional assay.
In assay [11] the target is T8, recombinant human CD30L protein (human, UniProt P32971 63-234).
T8 construct: Recombinant protein used in ELISA; also called huCD30L
T8 sequence (looked up): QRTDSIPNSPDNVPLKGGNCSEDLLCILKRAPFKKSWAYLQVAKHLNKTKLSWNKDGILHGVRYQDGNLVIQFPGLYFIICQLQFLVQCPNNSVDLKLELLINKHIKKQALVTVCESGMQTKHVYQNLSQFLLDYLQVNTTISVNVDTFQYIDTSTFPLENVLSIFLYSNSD
The assay can be described thus: ELISA, CD30 competitor, 1/100 dil.

The target of assay [12] is T9, human CD30L expressed on cells (human, UniProt P32971 1-234).
T9 construct: whole, on cells; also called huCD30L; B16-huCD30L cells
T9 sequence (looked up): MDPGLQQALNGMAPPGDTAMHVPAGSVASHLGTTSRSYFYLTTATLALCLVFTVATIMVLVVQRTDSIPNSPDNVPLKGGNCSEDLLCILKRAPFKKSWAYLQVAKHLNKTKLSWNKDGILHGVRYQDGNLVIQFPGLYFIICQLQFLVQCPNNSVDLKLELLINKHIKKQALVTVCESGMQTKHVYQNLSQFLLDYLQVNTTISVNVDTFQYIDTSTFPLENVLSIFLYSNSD
Nature of the assay: flow cytometry, PMA/ionomycin-stimulated primary lymphocytes, Patient 2 (UC, #03-041).
From the text: (§1) Peripheral blood mononuclear cells (PBMCs) were isolated from freshly collected whole blood from Ulcerative Colitis (UC) and Crohn's Disease (CD) patients, by conventional density gradient centrifugation. To induce CD30L expression on primary lymphocytes, the isolated cells were stimulated overnight with Phorbol 12-myristate 13-acetate (PMA) and ionomycin. […] After washing to remove unbound antibodies, the cells were fixed in a paraformaldehyde solution and analyzed by flow cytometry to quantify cell surface antibody binding.

Assay [13] addresses T8, recombinant human CD30L protein. Nature of the assay: ELISA, CD30 competitor, 1/10 dil.
Assay [14] deals with T10, recombinant cynomolgus CD30L protein (cynomolgus, UniProt A0A7N9CVX7 63-234).
T10 construct: Recombinant protein used in ELISA; also called cyCD30L
T10 sequence: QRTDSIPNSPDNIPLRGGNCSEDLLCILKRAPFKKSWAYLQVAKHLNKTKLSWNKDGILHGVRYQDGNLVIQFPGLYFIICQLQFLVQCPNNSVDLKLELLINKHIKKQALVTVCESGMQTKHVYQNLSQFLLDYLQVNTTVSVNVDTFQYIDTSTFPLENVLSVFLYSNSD
The assay can be described thus: ELISA, 1/50 dil.

Assay [15] has as its target T10, recombinant cynomolgus CD30L protein. The assay can be described thus: ELISA, 1/5000 dil.
The target of assay [16] is T8, recombinant human CD30L protein. The assay can be described thus: ELISA, CD30 competitor, 1/1000 dil.
Assay [17] addresses T10, recombinant cynomolgus CD30L protein. Nature of the assay: ELISA, 1/500 dil.
The target of assay [18] is T9, human CD30L expressed on cells. The assay can be described thus: flow cytometry, PMA/ionomycin-stimulated primary lymphocytes, Patient 1 (CD, #04-021).
From the text: as §1
Assay [19] addresses T8, recombinant human CD30L protein. Nature of the assay: ELISA, CD30 competitor, undil.
In assay [20] the target is T9, human CD30L expressed on cells. Nature of the assay: flow cytometry, PMA/ionomycin-stimulated primary lymphocytes, Patient 4 (CD, #01-051).
From the text: as §1
Assay [21] shares this target. Nature of the assay: flow cytometry, PMA/ionomycin-stimulated primary lymphocytes, Patient 3 (UC, #02-180).
From the text: as §1
The target of assay [22] is T4, recombinant human CD30L. The assay can be described thus: ELISA, binding to rhCD30L (OD 450 nm). The source holds these as a separate data set.
Assay [23] has as its target T5, human CD30L expressed on B16 cells. The assay can be described thus: flow cytometry, binding to B16 cells expressing human CD30L (MFI). This is another data set of the same source.

Where two headings read alike, the source gives them in different places.

B1: anti-CD30L antibody clone 2 with IgG1 constant region SEQ ID NO: 502 (antibody, V domains shown)
VH: EVQLVESGGGLVQPGRSLRLSCAASGFNFDDYAMHWVRQAPGKGLEWVSGISWRSGNIGYAGSVKGRFTISRDNAKNSLYLQMNSLRPEDSALYYCAKDKGIGFNWNYEGFDYWGQGTLVTVSS
VL: DIQMTQSPSSLSASVGDRVTITCRASQGISNHLAWFQQKPGKAPKSLIYAASSLQSGVPSKFSGSGSGTDFTLTISSLQPEDFATYYCQQYVTYPLTFGGGTKVEIK
notes: copies: 2 + 2
Turning to B1, the “IL-8 release dual cell assay, fold better IC50 than reference 1 (ref1) anti-CD30L” value came to 2 fold in [1] and 2.6 fold in assay [2]. Also, in the assay with CDH13, the binding result was “no binding (tested: 5 µg/mL)”.

B2: anti-CD30L antibody clone 80 (antibody, V domains shown)
VH: EVQLVESGGGLVQPGGSLRLSCEVSGFTFSSYDMHWVRQVTGTGLEWVSSIGIGGDTYYPGSVKGRFTISRENAKNSLYLQMNSLRGGDTGVYYCARGEWDLLWYFMDVWGKGTTVTVSS
VL: DIQMTQSPSSLSASIGDRVTITCRASQGISSWLAWYQQKPGKAPKLLIYAASSLQSGVPSRFSGSGSGTDFTLTISSLQPEDFATYYCQQANSFPLTFGGGTKVEIK
notes: purified recombinant IgG (held by anti-human biosensors); mouse strain #1
For B2, the “EC50 (read off the curve)” value with recombinant human CD30L [3] is approximately 0.2 nM; in [7] it was approximately 1 nM. Also, in the assay with recombinant human CD30L [4], the IC50 worked out at 2.74 nM. Moreover, the “rhCD30L:rhCD30 Blocking” value with recombinant human CD30L [5] stood at 0.0635. Besides, the “hCD30L B16 (+) FLOW” value in assay [6] is 8.3e+06. In the assay with recombinant mouse CD30L, the “rmCD30L (+) ELISA” value came to 0.048. In addition, in the assay with recombinant human CD30L [8], the “rhCD30L (+) ELISA” value worked out at 0.941. In assay [9], the “rcyCD30L (+) ELISA” value turned out to be 0.475. Besides, the “IC50 (read off the curve), IL-8 release, dual cell assay (B16-huCD30L cells + K299 cells)” value in [10] was approximately 2 nM.

B3: Clone 2 (antibody, V domains shown)
VH: EVQLVESGGGLVQPGRSLRLSCAASGFNFDDYAMHWVRQAPGKGLEWVSGISWRSGNIGYAGSVKGRFTISRDNAKNSLYLQMNSLRPEDSALYYCAKDKGIGFNWNYEGFDYWGQGTLVTVSS
VL: DIQMTQSPSSLSASVGDRVTITCRASQGISNHLAWFQQKPGKAPKSLIYAASSLQSGVPSKFSGSGSGTDFTLTISSLQPEDFATYYCQQYVTYPLTFGGGTKVEIK
notes: also called CLONE_2 (parental)
Take B3: the “% inhibition” value in assay [11] was found to be 45%; in assay [13], 98%; in [16], 1%; in assay [19], 98%. For the same molecule, the EC50 came out at 1.55 nM in [12], 2.4 nM in assay [18], 1.72 nM in [20] and 1.71 nM in assay [21]. Besides, the “Elisa Binding (OD)” value in assay [14] amounted to 3.76 OD; in assay [15], 1.23 OD; in assay [17], 3.18 OD.

B4: anti-CD30L antibody clone 82 (antibody, V domains shown)
VH: EVQLVESGGGLVQPGGSLRLSCAVSGITFSNAWMSWVRQAPGKGLEWVGRIKSKTYGGTTDYAAPVKGRFIISRDDSKDTLYLQMNSLKTEDTAIYYCTTDPWNYVNYNYFMDVWGKGTTVTVSS
VL: DIQMTQSPSSLSASVGDRVTITCRASQDIRNYLAWYQQKPGKITHLLVYAASTLQSGVPSRFSGSGSGTDFTLTINSLQPEDVATYYCQNYFSVPLTFGGGTKVEIK
notes: as for B2
As for B4, the “EC50 (read off the curve)” value is approximately 0.1 nM with recombinant human CD30L [22] and approximately 3 nM in assay [23]. For the same molecule, the IC50 with recombinant human CD30L [4] came to 3.51 nM. Moreover, the “rhCD30L:rhCD30 Blocking” value with recombinant human CD30L [5] came out at 0.071. Also, in assay [6], the “hCD30L B16 (+) FLOW” value worked out at 8.42e+06. For the same molecule, the “rmCD30L (+) ELISA” value in the assay with recombinant mouse CD30L stood at 0.048. For the same molecule, the “rhCD30L (+) ELISA” value with recombinant human CD30L [8] worked out at 1.41. Besides, in assay [9], the “rcyCD30L (+) ELISA” value is 0.982.

These data come from patent US20240254246A1 (PROMETHEUS BIOSCIENCES, published 2024).
